The target in this assay is T1, Active phosphorylated His6-tagged ERK2 WT (rat (p-0033 says mouse), UniProt P63086 3-358, phosphorylated (active form; sites not given)).
T1 construct: ERK2 (MAPK1); rat numbering; Same plasmid as the crystallised protein m9, but phosphorylated; also called WT ERK2; His6-ERK2; source: E. coli BL21(DE3), co-expressed with GST-MEK1ΔN3, purified (Talon resin)
Nature of the assay: competitive peptide kinase assay; D-peptide titrated as competitive inhibitor of 10 nM ERK2 on 5 μM D-site dependent reporter peptide (AQT0376), 10 μM ATP; 54 mM HEPES pH 7.4, 1.2 mM DTT, 0.01% Brij-35, 1% glycerol, 0.2 mg/ml BSA, 10 mM MgCl2; fluorescence read-out; IC50 as relative binding affinity. The settings on record: both partners purified.

Square brackets hold non-standard residues; d marks the D form. Ends that are not written are not given here.

B1: ISG20 D-peptide WT (competitive kinase assay form, with N-terminal Tyr-Ala) (peptide)
peptide: YAIRARRGLPRLAVSD
modifications: not fully specified
notes: ISG20, human, residues 168-181; also called ISG20^WT; ISG20 peptide WT; source: synthetic peptide (GenScript)
By IC50 is commonly meant the concentration needed to halve the response being measured. As for B1, the IC50 was found to be 5.4 µM.

B2: ISG20 D-peptide G6Q (peptide)
peptide: [dY][dA][dI][dR][dA][dR][dR][dQ][dL][dP][dR][dL][dA][dV][dS][dD]
notes: ISG20, human, residues 168-181 with the change; numbers count on: the 14-mer peptide (position 1 = Ile168); also called ISG20^G6Q; source: synthetic peptide (GenScript)
For B2, the IC50 is 41 µM.

B3: ISG20 D-peptide I1N (peptide)
peptide: YANRARRGLPRLAVSD
modifications: not fully specified (some residues)
notes: ISG20, human, residues 168-181 with the change; numbers count on: the 14-mer peptide (position 1 = Ile168); also called ISG20^I1N; source: synthetic peptide (GenScript)
Turning to B3, the IC50 was 190 µM.

B4: ISG20 D-peptide I1R/R2I (peptide)
peptide: YARIARRGLPRLAVSD
modifications: not fully specified (some residues)
notes: ISG20, human, residues 168-181 with the changes; numbers count on: the 14-mer peptide (position 1 = Ile168); also called ISG20^I1R/R2I; source: synthetic peptide (GenScript)
On to B4, for which the IC50 was found to be 200 µM.

Source of the values: article PMC11982978, “Cancer hotspot mutations rewire ERK2 specificity by selective exclusion of docking interactions” (The Journal of Biological Chemistry, 2025).
